Laboratory results: patent US7790682B1, “Engineered human acidic fibroblast growth factors and associated methods” (The Florida State University Research Foundation, Inc., priority 2003, dated 2010)
Entries after “also recorded” stand apart in the source; their conditions may differ.

B1: SYM5/Δ104-106: SYM5 FGF-1 mutant plus Ala103→Gly/ΔGlu104/ΔLys105/ΔAsn106 (protein, UniProt P05230 16-155, looked up, variant L44F L73V V109L L111I C117V A103G del104-106)
Fibroblast growth factor 1: FNLPPGNYKKPKLLYCSNGGHFLRILPDGTVDGTRDRSDQHIQFQLSAESVGEVYIKSTETGQYLAMDTDGLVYGSQTPNEECLFLERLEENHYNTYISKKHGWFLGIKKNGSVKRGPRTHYGQKAILFLPLPVSSD
B2: SYM5: FGF-1 core mutant Leu44→Phe/Leu73→Val/Val109→Leu/Leu111→Ile/Cys117→Val (protein, UniProt P05230 16-155, looked up, variant L44F L73V V109L L111I C117V)
Fibroblast growth factor 1: FNLPPGNYKKPKLLYCSNGGHFLRILPDGTVDGTRDRSDQHIQFQLSAESVGEVYIKSTETGQYLAMDTDGLVYGSQTPNEECLFLERLEENHYNTYISKKHAEKNWFLGIKKNGSVKRGPRTHYGQKAILFLPLPVSSD
B3: SYM6/ΔΔ: SYM6 FGF-1 mutant plus both Δ104-106 and Δ120-122 deletion mutations, SEQ ID NO: 1 (protein)
chain: FNLPPGNYKKPKLLYCSNGGHFLRILPDGTVDGTRDRSDQHIQFQLSAESVGEVYIKSTETGQYLAIDTDGLVYGSQTPNEECLFLERLEENHYNTYISKKHGWFLGIKKNGSVKGTHYGQKAILFLPLPVSSD
modifications: Human FGF-1 mutant SYM6DD
B4: SYM5/Δ120-122: SYM5 FGF-1 mutant plus Arg119→Gly/ΔGly120/ΔPro121/ΔArg122, SEQ ID NO: 2 (protein)
chain: FNLPPGNYKKPKLLYCSNGGHFLRILPDGTVDGTRDRSDQHIQFQLSAESVGEVYIKSTETGQYLAMDTDGLVYGSQTPNEECLFLERLEENHYNTYISKKHAEKNWFLGIKKNGSVKGTHYGQKAILFLPLPVSSD
modifications: Human FGF-1 mutant SYM5D120-122

How the values were obtained:
NIH 3T3 fibroblasts = assay: Cell proliferation (mitogenic activity) assay; assay type: cell-based; details: NIH 3T3 fibroblasts; for EC50 (effective concentration for 50% maximal stimulation): 48 hours
Method: NIH 3T3 fibroblasts were initially plated in Dulbecco's modified Eagle's medium (DMEM) (American Type Culture Collection, Manassas Va.) supplemented with 10% (v/v) newborn calf serum (NCS) (Sigma, St. Louis Mo.), 100 units of penicillin, 100 μg streptomycin, 0.25 μg Fungizone™ and 0.01 mg/ml gentamicin (Gibco, Carlsbad Calif.) (“serum-rich” medium) in T75 tissue culture flasks (Fisher, Pittsburgh Pa.). The cultures were incubated at 37° C. and all cell growth was performed with 5% CO2 supplementation. At approximately 80% cell confluence, the cells were washed with 5 ml cold 0.14M NaCl, 5.1 mM KCl, 0.7 mM Na2HPO4 and 24.8 mM Trizma® base, pH 7.4 (TBS) and subsequently treated with 5 ml of a 0.025% trypsin solution (Invitrogen Corp., Carlsbad Calif.). Cell synchronization was initiated by serum starvation in DMEM with 0.5% NCS, 100 units of penicillin, 100 μg streptomycin, 0.25 μg Fungizone™ and 0.01 mg/ml gentamicin (“starvation” medium). The cells were seeded in T25 tissue culture flasks (Fisher, Pittsburgh, Pa.) at a cell density of 3.0×10^4 cells/cm^2 (representing ˜20% confluence). Duplicate flasks were used for each protein concentration. Cultures were incubated for 48 hours at 37° C., the medium was then decanted and replaced with fresh medium supplemented with the appropriate concentration of FGF-1 polypeptide, and incubated for an additional 48 hours. After this incubation, the medium was decanted and the cells were washed with 1 ml cold TBS pH 7.4. 1 ml of 0.025% trypsin was then added to release the cells from the flask surface, and 2 ml of serum-rich medium were added to dilute and inhibit the trypsin. The cells were counted using a hemocytometer (Hausser Scientific Partnership, Horsham Pa.). Experiments were performed in quadruplicate and the cell densities were averaged. The relationship between the cell number and log concentration of added growth factor was fit to a sigmoidal function.
Mitogenic activity towards NIH 3T3 fibroblasts was determined for WT*, SYM5, SYM5Δ104-106, SYM5Δ120-122, and SYM6ΔΔ mutants. […] The NIH 3T3 fibroblast proliferative activity of WT* FGF-1 yielded an effective concentration for 50% maximal stimulation (EC50) of 60 ng/ml (FIG. 3).

[1] = Heparin Sepharose affinity chromatography / heparin-binding affinity
From the text: All studies herein disclosed utilized a synthetic gene for the 140 amino acid form of human FGF-1 with the addition of an amino-terminal six residue “His-tag” to facilitate purification using nickel nitrilotriacetic acid (Ni-NTA) affinity resin (QIAGEN, Valencia Calif.). The QuikChange® site-directed mutagenesis protocol (Stratagene, La Jolla Calif.) was used to introduce mutations, individually or in combination, using mutagenic oligonucleotides of 25 to 31 bases in length (Biomolecular Analysis Synthesis and Sequencing Laboratory, Florida State University). For deletions involving residues 104-106 and 120-122, mutagenic oligonucleotides were used to delete these positions as well as to simultaneously create point mutations Ala103 ? Gly and Arg119 ? Gly, respectively. […]
All mutant proteins, with the exception of the SYM6 mutant were expressed at levels similar to the WT* protein (i.e. ˜30-100 mg/L). […] Phe, and E280nm (0.1%, 1 cm)=1.31 for all deletion mutations (determined by dithionitrobenzoate titration of cysteine residues).
To quantify the reduced affinity for heparin (a polysulfonated polysaccharide) we determined the affinity for sucrose octasulfate, a structural mimic of a heparin dimer, by isothermal titration calorimetry. […]

| Molecule | EC50 (effective concentration for 50% maximal stimulation) (NIH 3T3 fibroblasts) [µg/mL] | mitogenic activity in comparison to WT* (in words) (NIH 3T3 fibroblasts) | heparin-binding affinity (in words) [1] |
| --- | --- | --- | --- |
| WT*: Wild type (his-tagged) 140 amino acid form of human FGF-1, SEQ ID NO: 4 [reference compound] | 0.06 |  |  |
| B1 | 0.115 | approximately two-fold less mitogenic activity |  |
| B2 |  | essentially identical results as WT* |  |
| B3 | 0.00084 | almost two orders of magnitude more potent | markedly reduced; also recorded: decreased heparin binding affinity |
| B4 | 0.0021 |  |  |
